Reference: the supplement of paper PMC9233669
Fewer inactive variants are shown than the library holds.

Columns and labels:
biotinyl-Met-oxazolone = assay: self-aminoacylation, catalytic enhancement (BMO) (fold over background); higher = more active; k-Seq, kA / k0A0; sequences stand for … in GGGAAUGGAUCCACAUCUACGAAUUC…UUCACUGCAGACUUGACGAAGCUG
Method in brief: (§1)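 The uncatalyzed rate is the low-activity peak of a bimodal Gaussian fit, and catalytic enhancement is median kA divided by it. The kA values came from pseudo-first-order fits, with 1000 bootstraps, of per-sequence fraction reacted measured by streptavidin capture, triplicate qPCR and Illumina sequencing. Mutagenized RNA pools with a 21-nt variable region (0.43 μM) were reacted with each biotinyl-aminoacyl-oxazolone at 2–1250 μM in 50 μL HEPES/NaCl/KCl/MgCl2/CaCl2 buffer with 5% acetonitrile, pH 6.9–7.0, for 90 minutes at room temperature.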

biotinyl-Phe-oxazolone = assay: self-aminoacylation, catalytic enhancement (BFO) (fold over background); higher = more active; k-Seq, kA / k0A0; sequences stand for … in GGGAAUGGAUCCACAUCUACGAAUUC…UUCACUGCAGACUUGACGAAGCUG
Method in brief: as §1

biotinyl-Val-oxazolone = assay: self-aminoacylation, catalytic enhancement (BVO) (fold over background); higher = more active; k-Seq, kA / k0A0; sequences stand for … in GGGAAUGGAUCCACAUCUACGAAUUC…UUCACUGCAGACUUGACGAAGCUG
Method in brief: as §1

biotinyl-Ile-oxazolone = assay: self-aminoacylation, catalytic enhancement (BIO) (fold over background); higher = more active; k-Seq, kA / k0A0; sequences stand for … in GGGAAUGGAUCCACAUCUACGAAUUC…UUCACUGCAGACUUGACGAAGCUG
Method in brief: as §1

biotinyl-Trp-oxazolone = assay: self-aminoacylation, catalytic enhancement (BWO) (fold over background); higher = more active; k-Seq, kA / k0A0; sequences stand for … in GGGAAUGGAUCCACAUCUACGAAUUC…UUCACUGCAGACUUGACGAAGCUG
Method in brief: as §1

biotinyl-Leu-oxazolone = assay: self-aminoacylation, catalytic enhancement (BLO) (fold over background); higher = more active; k-Seq, kA / k0A0; sequences stand for … in GGGAAUGGAUCCACAUCUACGAAUUC…UUCACUGCAGACUUGACGAAGCUG
Method in brief: as §1

| Sequence | self-aminoacylation (biotinyl-Met-oxazolone) | self-aminoacylation (biotinyl-Phe-oxazolone) | self-aminoacylation (biotinyl-Val-oxazolone) | self-aminoacylation (biotinyl-Ile-oxazolone) | self-aminoacylation (biotinyl-Trp-oxazolone) | self-aminoacylation (biotinyl-Leu-oxazolone) |
| --- | --- | --- | --- | --- | --- | --- |
| ACUCGCCUAGGUCAUCGGGUG [Fam2.2 aminoacylation ribozyme variant] | 9.99 | 62.9 | 6.73 | 6.84 | 10.9 | 11 |
| ACUUCCCUGGUCAUCGAGUGA [Fam2.1 aminoacylation ribozyme variant] | 9.66 | 41.8 | 5.69 | 4.96 | 12.1 | 9.49 |
| AGACACCUAGGUCAUCGGGUG [Fam2.2 aminoacylation ribozyme variant] | 3.07 | 20.6 | 2.32 | 3.01 | 4.31 | 3.29 |
| AGAUUUGCUAAUAGUCGCAAG [Fam3.1 aminoacylation ribozyme variant] | 1.58 | 2.47 | 1.8 | 1.91 | 1.88 | 2.39 |
| AGCCACCUAGGUCAUCGGGUG [Fam2.2 aminoacylation ribozyme variant] | 7.16 | 81.6 | 6.3 | 6.24 | 10.3 | 8.17 |
| AGGCUUGCUAAUAGUCGCAAG [Fam3.1 aminoacylation ribozyme variant] | 2.14 | 3.69 | 1.96 | 2.17 | 2.08 | 2.31 |
| AGGUUUGAUAAUAGUCGCAAG [Fam3.1 aminoacylation ribozyme variant] | 1.57 | 3.51 | 1.54 | 1.55 | 1.8 | 1.67 |
| AGGUUUGCUAAUAAUCGCAAG [Fam3.1 aminoacylation ribozyme variant] | 0.753 | 1.91 | 0.949 | 0.899 | 0.725 | 0.822 |
| AGGUUUGCUAAUAGACGCAAG [Fam3.1 aminoacylation ribozyme variant] | 0.529 | 0.835 | 0.752 | 0.608 | 0.609 | 0.594 |
| AGGUUUGCUAAUAGGCGCAAG [Fam3.1 aminoacylation ribozyme variant] | 0.736 | 1.16 | 0.734 | 0.85 | 1.18 | 0.626 |
| AGGUUUGGUAAUAGUCGCAAG [Fam3.1 aminoacylation ribozyme variant] | 1.72 | 3.19 | 1.41 | 1.82 | 2.22 | 1.77 |
| AGUACCAUGGUCAUCGAGUGA [Fam2.1 aminoacylation ribozyme variant] | 6.66 | 29.9 | 4.22 | 4.22 | 8.32 | 7.11 |
| AGUACCCAGGUCAUCGAGUGA [Fam2.1 aminoacylation ribozyme variant] | 5.45 | 16.6 | 3.2 | 3.36 | 6.61 | 5.05 |
| AGUACCCUAGUCAUCGAGUGA [Fam2.1 aminoacylation ribozyme variant] | 4.86 | 24.6 | 3.13 | 3.2 | 6.29 | 4.92 |
| AGUACCCUGAUCAUCGAGUGA [Fam2.1 aminoacylation ribozyme variant] | 6.82 | 26.6 | 3.5 | 3.22 | 8.64 | 6.72 |
| AGUACCCUGGUCAACGAGUGA [Fam2.1 aminoacylation ribozyme variant] | 5.55 | 21.6 | 2.63 | 2.91 | 5.71 | 4.71 |
| AGUACCCUGGUCAUCCAGUGA [Fam2.1 aminoacylation ribozyme variant] | 5.15 | 34.7 | 2.86 | 3.06 | 6.9 | 5.87 |
| AGUACCCUGGUCCUCGAGUGA [Fam2.1 aminoacylation ribozyme variant] | 4.14 | 18.1 | 2.81 | 2.7 | 4.66 | 5.58 |
| AGUACCCUUGUCAUCGAGUGA [Fam2.1 aminoacylation ribozyme variant] | 5.76 | 18.4 | 3.48 | 3.06 | 6.7 | 6.28 |
| AGUCACCUAGGUCACCGGGUG [Fam2.2 aminoacylation ribozyme variant] | 4.49 | 31.7 | 4.47 | 4.07 | 6.49 | 4.38 |
| AGUCACCUAGGUCAUCCGGUG [Fam2.2 aminoacylation ribozyme variant] | 6.2 | 56.9 | 5.32 | 5.6 | 7.84 | 6.49 |
| AGUCACCUAGGUCAUCGCGUG [Fam2.2 aminoacylation ribozyme variant] | 14.4 | 97 | 9.1 | 8.4 | 14.3 | 18.3 |
| AGUCACCUAGGUCAUCGGAUG [Fam2.2 aminoacylation ribozyme variant] | 1.21 | 1.24 | 1.04 | 1.2 | 0.786 | 1.18 |
| AGUCACCUAGGUCAUCGGCUG [Fam2.2 aminoacylation ribozyme variant] | 2.18 | 18.9 | 2.59 | 2.5 | 3 | 2.27 |
| AGUCACCUAGGUCAUCGGGUA [Fam2.2 aminoacylation ribozyme variant] | 11.6 | 60 | 6.5 | 6.85 | 9.54 | 12.7 |
| AGUCACCUAGGUUAUCGGGUG [Fam2.2 aminoacylation ribozyme variant] | 4.56 | 32.2 | 4.56 | 4.39 | 6.62 | 4.68 |
